In patent US20250043017A1 (Regeneron, published 2025):

Experiments:
hPD-L1-mFc = target: T1, hPD-L1-mFc (human; mouse, UniProt Q9NZQ7 19-239); experiment: blocking ELISA, 0.7 nM hPD-L1-mFc binding to coated hPD1-hFc
T1 construct: range 19-239; also called human PD-L1 extracellular domain with mouse IgG2a Fc; not shown: Fc portion of mouse IgG2a at the C-terminus, amino acids E98-K330
Method: In the PD-L1 blocking assay, hPD1-hFc protein ([…] in PBS) was coated onto a 96-well microtiter plate overnight at 4° C. […] The plates were then developed using TMB substrate solution (BD Biosciences) according to the manufacturer's recommended procedure and the absorbance at 450 nm was measured on a SpectraMax I3x plate reader.
(§1) Binding data were analyzed using a sigmoidal (four-parameter logistic) dose-response model with GraphPad Prism™ software. […] The percent blocking of tested antibodies at the highest tested concentration of 100 nM was calculated based on the formula shown below: […]

human PD-L1 on cells [1] = target: T2, human PD-L1 on cells (human, UniProt Q9NZQ7 19-290); experiment: cell-based or functional assay
[2] = target: T3, human 4-1BB expressed with a C-terminal myc-myc-hexahistidine tag (h4-1BB.mmH) (human); experiment: SPR Biacore, 25 C, antibody captured via anti-hFc, h4-1BB.mmH as analyte
T3 construct: also called hCD137 (4-1BB) mmH
Method: (§2) The CM5 Biacore sensor surface was derivatized by amine coupling with a monoclonal mouse anti-human Fc antibody. All Biacore binding studies were performed in a buffer composed of 0.01M HEPES pH 7.4, 0.15M NaCl, 3 mM EDTA, 0.05% v/v Surfactant P20 (HBS-EP running buffer). […] Antibody-reagent association was monitored for 5 minutes while dissociation in HBS-EP running buffer was monitored for 10 minutes. At the end of each cycle, the antibody capture surface was regenerated using a 10 sec injection of 20 mM phosphoric acid. All binding kinetics experiments were performed at 25° C.
(§3) Data analysis: The specific SPR-Biacore sensorgrams were obtained by a double referencing procedure. The double referencing was performed by first subtracting the signal of each injection over a reference surface (anti-hFc or anti-mFc) from the signal over the experimental surface (anti-hFc-captured anti-PD-L1×4-1BB antibodies) thereby removing contributions from refractive index changes. In addition, running buffer injections were performed to allow subtraction of the signal changes resulting from the dissociation of captured antibodies or antigens from the coupled anti-hFc or anti-mFc surface. Kinetic association (kₐ) and dissociation (kd) rate constants were determined by fitting the real-time sensorgrams to a 1:1 binding model using Scrubber v2.0c curve fitting software. Binding dissociation equilibrium constants (KD) and dissociative half-lives (t½) were calculated from the kinetic rate constants as: […]

human PD-L1 on cells [3] = target: T2, human PD-L1 on cells; experiment: flow cytometry, Jurkat/NFkB-Luc/h41BB cells (potential low endogenous PD-L1)
Method: (§4) Binding was detected by using a labeled secondary antibody and measuring fluorescence on a flow cytometer.
(§5) Assay set up: OVCAR-3+/−PD-L1 cells were lifted with trypsin, washed and resuspended in stain buffer (2% FBS in PBS). OVCAR-3 and Jurkat/NFkB-Luc/h41BB cells were counted and added to wells at 200,000 cells/well. Cells, in wells of 96-well round bottom plates, were pelleted by centrifugation and resuspended in 150 ul stain buffer (PBS containing 2% FBS). Plates were once again centrifuged and subsequently 100 ul of stain buffer alone or stain buffer containing antibody, titrated from 200 nM to 12 pM in a 9-point 1:4 dose titration were added to cells. Cells and antibodies were incubated for 30 min on ice and then washed in stain buffer. Cells were resuspended in 2 μg/ml allophycocyanin (APC) conjugated goat-anti human secondary antibody. A secondary antibody alone control was included. Cells and secondary were incubated for 30 min on ice and then washed in stain buffer. […] After washing they were filtered and analyzed by flow cytometry. EC₅₀ values of the antibodies were determined from a 4 parameter logistic equation over a 9-point dose response curve (including secondary only control) using GraphPad Prism software.

human PD-L1 on cells [4] = target: T2, human PD-L1 on cells; experiment: flow cytometry, OVCAR3/hPD-L1 cells
Method: as §4, §5

human 4-1BB on cells [5] = target: T4, human 4-1BB on cells (human, UniProt Q07011 24-255); experiment: cell-based or functional assay
[6] = target: T3, human 4-1BB expressed with a C-terminal …; experiment: blocking ELISA, 0.25 nM h4-1BB-mmh binding to coated 6His-Flag-h4-1BBL
Method: The 4-1BB blocking assay was performed similarly to the PD-L1 blocking assay. 6His-Flag-h4-1BBL protein ([…] in PBS) was coated onto a 96-well microtiter plate overnight at 4 °C. […] The plates were developed using TMB substrate solution (BD Biosciences) and the absorbance at 450 nm was measured on a SpectraMax I3x plate reader.
as §1

human 4-1BB on cells [7] = target: T4, human 4-1BB on cells; experiment: cell-based or functional assay; remark: listed apart in the source
[8] = target: human PD-L1 expressed with a C-terminal myc-myc-hexahistidine tag (hPD-L1.mmH) (human); experiment: SPR Biacore, 25 C, antibody captured via anti-hFc, hPD-L1.mmH as analyte
Method: as §2, with “a 12” for “a 10”
as §3

human PD-L1 on cells [9] = target: T2, human PD-L1 on cells; experiment: flow cytometry, OVCAR3 cells (low endogenous PD-L1)
Method: as §4, §5

human 4-1BB on cells [10] = target: T4, human 4-1BB on cells; experiment: flow cytometry, Jurkat/NFkB-Luc/h41BB cells
Method: as §4
Assay set up: OVCAR-3+/−PD-L1 cells were lifted with trypsin, washed and resuspended in stain buffer (2% FBS in PBS). OVCAR-3 and Jurkat/NFkB-Luc/h41BB cells were counted and added to wells at 200,000 cells/well. Cells, in wells of 96-well round bottom plates, were pelleted by centrifugation and resuspended in 150 ul stain buffer (PBS containing 2% FBS). Plates were once again centrifuged and subsequently 100 ul of stain buffer alone or stain buffer containing antibody, titrated from 200 nM to 12 pM in a 9-point 1:4 dose titration were added to cells. Cells and antibodies were incubated for 30 min on ice and then washed in stain buffer. Cells were resuspended in 2 μg/ml allophycocyanin (APC) conjugated goat-anti human secondary antibody. A secondary antibody alone control was included. Cells and secondary were incubated for 30 min on ice and then washed in stain buffer. After a subsequent wash with PBS (containing no FBS), cells were resuspended in viability dye (reconstituted in DMSO according to the manufacturer's protocol and diluted 1:1000 in PBS) and incubated for 20 min on ice. They were then washed with stain buffer and resuspended in 2% PFA for 30 min at 4 C. After washing they were filtered and analyzed by flow cytometry. EC₅₀ values of the antibodies were determined from a 4 parameter logistic equation over a 9-point dose response curve (including secondary only control) using GraphPad Prism software.

T4 sequence (Q07011 24-255): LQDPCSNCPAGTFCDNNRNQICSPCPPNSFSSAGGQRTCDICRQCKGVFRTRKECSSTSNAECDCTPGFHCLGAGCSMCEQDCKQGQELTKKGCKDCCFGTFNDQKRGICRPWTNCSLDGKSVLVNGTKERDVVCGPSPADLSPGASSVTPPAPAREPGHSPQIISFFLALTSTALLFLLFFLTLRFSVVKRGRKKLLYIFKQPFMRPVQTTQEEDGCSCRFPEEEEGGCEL
T2 sequence (Q9NZQ7 19-290): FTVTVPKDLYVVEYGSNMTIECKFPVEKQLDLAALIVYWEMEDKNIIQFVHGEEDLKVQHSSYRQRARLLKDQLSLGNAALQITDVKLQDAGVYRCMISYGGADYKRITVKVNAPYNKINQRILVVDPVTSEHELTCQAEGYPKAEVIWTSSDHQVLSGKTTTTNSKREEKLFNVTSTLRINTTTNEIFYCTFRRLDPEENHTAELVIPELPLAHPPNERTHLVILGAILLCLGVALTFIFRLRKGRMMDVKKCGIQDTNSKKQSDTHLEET
Chain of human PD-L1 expressed with a C-terminal myc-myc-hexahistidine tag (hPD-L1.mmH) (human) (chain, as listed by the source limits assumed): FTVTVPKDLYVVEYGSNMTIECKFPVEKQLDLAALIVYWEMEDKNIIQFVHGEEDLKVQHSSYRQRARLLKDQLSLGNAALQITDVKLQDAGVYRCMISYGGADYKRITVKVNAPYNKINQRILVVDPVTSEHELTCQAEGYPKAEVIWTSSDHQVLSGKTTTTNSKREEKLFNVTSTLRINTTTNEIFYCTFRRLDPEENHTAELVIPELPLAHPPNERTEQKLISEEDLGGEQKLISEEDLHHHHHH
T3 sequence (chain, as listed by the source limits assumed): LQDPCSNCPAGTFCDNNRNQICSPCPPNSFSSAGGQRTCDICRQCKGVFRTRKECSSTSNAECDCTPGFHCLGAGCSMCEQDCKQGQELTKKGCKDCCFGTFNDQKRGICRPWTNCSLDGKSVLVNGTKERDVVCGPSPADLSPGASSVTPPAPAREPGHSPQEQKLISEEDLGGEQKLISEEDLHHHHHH
T1 sequence (Q9NZQ7 19-239 limits assumed): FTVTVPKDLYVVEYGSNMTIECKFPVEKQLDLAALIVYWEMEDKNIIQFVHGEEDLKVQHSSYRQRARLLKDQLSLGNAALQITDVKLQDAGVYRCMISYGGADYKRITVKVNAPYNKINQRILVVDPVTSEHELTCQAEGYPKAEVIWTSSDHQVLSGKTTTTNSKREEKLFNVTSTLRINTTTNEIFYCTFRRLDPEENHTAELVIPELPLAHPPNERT

270 nM h4-1BB-mmH Bind (RU) [2]	IL2 release MAX, human CD3+ T cells + HEK293/hCD20/hPSMA + CD20xCD3 (human 4-1BB on cells [5])	IL2 release MAX, human CD3+ T cells + HEK293/hCD20/hPSMA, no CD20xCD3 (human 4-1BB on cells [5])	IL2 release MAX, human CD3+ T cells + HEK293/hCD20/hPSMA/hPD-L1 + CD20xCD3 (human 4-1BB on cells [5])	IL2 release MAX, human CD3+ T cells + HEK293/hCD20/hPSMA/hPD-L1, no CD20xCD3 (human 4-1BB on cells [5])	% Blocking at 100 nM mAb [6]	NFkB-luciferase MAX (RLU), Jurkat/NFkB-Luc/h41BB + HEK293/hCD20/hPSMA (human 4-1BB on cells [7])	NFkB-luciferase MAX (RLU), Jurkat/NFkB-Luc/h41BB + HEK293/hCD20/hPSMA/hPD-L1 (human 4-1BB on cells [7])	Kd [2]	koff [2]	kon [2]	t½ [2]	IL2 release EC50, human CD3+ T cells + HEK293/hCD20/hPSMA/hPD-L1 + CD20xCD3 (human 4-1BB on cells [5])	NFkB-luciferase EC50, Jurkat/NFkB-Luc/h41BB + HEK293/hCD20/hPSMA/hPD-L1 (human 4-1BB on cells [7])	Fold change (max MFI over secondary antibody alone) (human 4-1BB on cells [10])	Max [gMFI] (human 4-1BB on cells [10])	Binder	further results
2 RU	13.4 pg/mL	3.5 pg/mL	9.3 pg/mL	3.5 pg/mL	0%	60900 RLU	70900 RLU									mAb9364 (antibody, V domains shown, bivalent parental anti-PD-L1 antibody; captured by anti-human Fc); also called 9364P3; parental bivalent PD-L1 antibody) VH: EVQLVESGGGLVQPGRSLRLSCAASGFTFDDYALHWVRQAPGKGLEWVSGISWTGGTIDYADSVKGRFTISRDNAKNSLYLQMSSLRTEDTAIYYCTRDIRGNWKYGGWFDPWGQGTLVTVSS VL: not shown	IC50 (hPD-L1-mFc): 520 pM; AP-1 luciferase EC50, Jurkat/AP1-luc/hPD1 + WSU-DLCL2/hPD-L1 + CD20xCD3 (human PD-L1 on cells [1]): 6.51 pM; binding result [2]: no binding (tested: 270 nM); Fold change (max MFI over secondary antibody alone) (human PD-L1 on cells [3]): 9.5 fold; EC50 (human PD-L1 on cells [4]): 860 pM; Fold change (max MFI over secondary antibody alone) (human PD-L1 on cells [4]): 2200 fold; Kd [8]: 130 pM; koff [8]: 7.42e-05 s⁻¹; kon [8]: 571000 M⁻¹ s⁻¹; t½ [8]: 2.59 h; EC50 (human PD-L1 on cells [9]): 8.4 pM; Fold change (max MFI over secondary antibody alone) (human PD-L1 on cells [9]): 4.4 fold
25.4 RU	8.7 pg/mL	10.1 pg/mL	83.1 pg/mL	10.1 pg/mL	64%	175000 RLU	1.18e+06 RLU	61600 pM	0.0315 s⁻¹	511000 M⁻¹ s⁻¹	24 s	1090 pM	7030 pM	23.8 fold	54000 gMFI	REGN6189 (bispecific antibody, human IgG4 S228P, kappa, common light chain 1-39; also called R6189; PD-L1x4-1BB REGN6189) heavy 1: EVQLVESGGGLVQPGRSLRLSCAASGFTFDDYALHWVRQAPGKGLEWVSGISWTGGTIDYADSVKGRFTISRDNAKNSLYLQMSSLRTEDTAIYYCTRDIRGNWKYGGWFDPWGQGTLVTVSSASTKGPSVFPLAPCSRSTSESTAALGCLVKDYFPEPVTVSWNSGALTSGVHTFPAVLQSSGLYSLSSVVTVPSSSLGTKTYTCNVDHKPSNTKVDKRVESKYGPPCPPCPAPPVAGPSVFLFPPKPKDTLMISRTPEVTCVVVDVSQEDPEVQFNWYVDGVEVHNAKTKPREEQFNSTYRVVSVLTVLHQDWLNGKEYKCKVSNKGLPSSIEKTISKAKGQPREPQVYTLPPSQEEMTKNQVSLTCLVKGFYPSDIAVEWESNGQPENNYKTTPPVLDSDGSFFLYSRLTVDKSRWQEGNVFSCSVMHEALHNHYTQKSLSLSLGK heavy 2: QVQLVESGGDVVQPGRSLRLSCTASGFTFSSFGMHWVRQAPGKGLEWVTFLSYDGSYKYYADSVKGRFTISRDNSKNTLYLQMNSLRAEDTAIFYCARDWLDYWGQGTLVTVSSASTKGPSVFPLAPCSRSTSESTAALGCLVKDYFPEPVTVSWNSGALTSGVHTFPAVLQSSGLYSLSSVVTVPSSSLGTKTYTCNVDHKPSNTKVDKRVESKYGPPCPPCPAPPVAGPSVFLFPPKPKDTLMISRTPEVTCVVVDVSQEDPEVQFNWYVDGVEVHNAKTKPREEQFNSTYRVVSVLTVLHQDWLNGKEYKCKVSNKGLPSSIEKTISKAKGQPREPQVYTLPPSQEEMTKNQVSLTCLVKGFYPSDIAVEWESNGQPENNYKTTPPVLDSDGSFFLYSRLTVDKSRWQEGNVFSCSVMHEALHNRFTQKSLSLSPGK light: not shown	
30.7 RU	9.6 pg/mL	8.9 pg/mL	52.5 pg/mL	8.9 pg/mL	85%	120000 RLU	973000 RLU	30300 pM	0.021 s⁻¹	692000 M⁻¹ s⁻¹	30 s	663 pM	4480 pM	36.2 fold	82000 gMFI	REGN6190 (bispecific antibody, human IgG4 S228P, kappa, common light chain 1-39; also called R6190; PD-L1x4-1BB REGN6190) heavy 1: EVQLVESGGGLVQPGRSLRLSCAASGFTFDDYALHWVRQAPGKGLEWVSGISWTGGTIDYADSVKGRFTISRDNAKNSLYLQMSSLRTEDTAIYYCTRDIRGNWKYGGWFDPWGQGTLVTVSSASTKGPSVFPLAPCSRSTSESTAALGCLVKDYFPEPVTVSWNSGALTSGVHTFPAVLQSSGLYSLSSVVTVPSSSLGTKTYTCNVDHKPSNTKVDKRVESKYGPPCPPCPAPPVAGPSVFLFPPKPKDTLMISRTPEVTCVVVDVSQEDPEVQFNWYVDGVEVHNAKTKPREEQFNSTYRVVSVLTVLHQDWLNGKEYKCKVSNKGLPSSIEKTISKAKGQPREPQVYTLPPSQEEMTKNQVSLTCLVKGFYPSDIAVEWESNGQPENNYKTTPPVLDSDGSFFLYSRLTVDKSRWQEGNVFSCSVMHEALHNHYTQKSLSLSLGK heavy 2: EVQLVESGGGLVQPGGSLRLSCEASGFTFSSYEMNWVRQAPGKGLEWISHISSSGSSIYYADSVQGRFTISRDKAKNSLYLQMNSLRAEDTAVYYCTREGFEYGSSSGLKYYYYGLDVWGQGTTVTVSSASTKGPSVFPLAPCSRSTSESTAALGCLVKDYFPEPVTVSWNSGALTSGVHTFPAVLQSSGLYSLSSVVTVPSSSLGTKTYTCNVDHKPSNTKVDKRVESKYGPPCPPCPAPPVAGPSVFLFPPKPKDTLMISRTPEVTCVVVDVSQEDPEVQFNWYVDGVEVHNAKTKPREEQFNSTYRVVSVLTVLHQDWLNGKEYKCKVSNKGLPSSIEKTISKAKGQPREPQVYTLPPSQEEMTKNQVSLTCLVKGFYPSDIAVEWESNGQPENNYKTTPPVLDSDGSFFLYSRLTVDKSRWQEGNVFSCSVMHEALHNRFTQKSLSLSPGK light: not shown	
